Results published in US20250043290A1, “RNA SEQUENCES THAT INDUCE FLUORESCENCE OF SMALL MOLECULE FLUOROPHORES, MOLECULAR COMPLEXES, SENSORS, AND METHODS OF USE THEREOF” (CORNELL UNIVERSITY, priority 2021, published 2025).

Legend:
[1] = Fluorescence activation of DFHBI-1T by aptamers in vitro; type: biochemical
From the text: FIG. 1A is a schematic illustrating the strategy for evolution of the add A-riboswitch aptamer. Indicated are helices P1-P3, junctional strands (J1/2, J2/3, J3/1), kissing loop (gray lines), and adenine interactions with the aptamer (dotted line) (5′-CUUCAUAUAAUCCUAAUGAUAUGGUUUGGGAGUUUCUACCAAGAGCCUUAAACUCUUGAUUAUGAAG-3′ (SEQ ID NO:36)). The chemical structure of adenine and fluorophores are shown. Three regions (Region 1: 5′-UAU AAU-3′ (SEQ ID NO:37)), Region 2: 5′-AGU UUC UAC C-3′ (SEQ ID NO:38); Region 3: 5′-GAU UAU-3′ SEQ ID NO:39), which include J1/2, J2/3, and J3/1 were randomized in both size and sequence resulting in a sprouts/clips library for SELEX. Each nucleotide in the colored regions was replaced using a combination of random stochastic deletion (designated “N”) and random stochastic insertion (designated “n”). FIG. 1B is schematic showing a three dimensional structure of the add A-riboswitch aptamer highlighting the adenine-binding pocket (PDB 1Y26). The mutagenized regions are shown in the same color as FIG. 1A. Adenine is indicated by the arrow. FIG. 1C is a schematic illustrating the evolution of the add A-riboswitch aptamer into Squash, a DFHBI-1T-binding aptamer. The sprouts/clips library was selected for binding to DFHBI-conjugated agarose resulting in aptamer 9-1. Aptamer 9-1 was subjected to two consecutive rounds of directed evolution generating DE2-6. A pair of mutations was introduced in DE2-6 to strengthen the kissing loop interaction resulting in Squash. FIG. 1D is a graph showing fluorescence activation of DFHBI-1T by different aptamer intermediates that led to Squash. The values inside the bars indicate fold-activation of DFHBI-1T fluorescence by the corresponding aptamer. Data represent mean values±s.d. for n=3 independent experiments. […]
FIG. 6A is a bar graph showing fluorescence activation of DFHO by Squash and its precursors. Fluorescence was measured with 200 nM dye and 10 μM RNA (ex: 495 nm, em: 562 nm, except for Corn; ex: 505 nm, em: 545 nm). […] FIG. 6B is a bar graph showing fluorescence of initial hits after Round 7 of SELEX. In vitro transcribed RNAs from each hit (1 μM final) were mixed with DFHBI-1T (10 μM final) and the fluorescence was measured (ex: 452 nm, em: 503 nm, except for Broccoli; ex: 472 nm, em: 507 nm). […] FIGS. 6C-6D are bar graphs showing fluorescence measurements of the hits with DFHBI-1T after first (FIG. 6C) and second (FIG. 6D) round of directed evolution, measured as in FIG. 6B. […] FIG. 6E is a bar graph showing fluorescence measurements of hits using DFHO after the second round of directed evolution measured as in FIG. 6A. The fluorescence of the hits were normalized against Corn. […] FIG. 6F is a graph showing normalized fluorescence. […] Fluorescence was measured as in FIG. 6A. […]

[2] = Kd measurements for Broccoli and Squash binding to BI; conditions: 50 nM RNA
Experimental: FIGS. 7A-7H provide photophysical and biophysical characterization of Squash. […] Excess RNA was used to ensure binding of nearly all fluorophore. […] Data represent mean values±s.d. for n=3 independent experiments. […] The fluorescence signal trace was fitted with a monoexponential curve to extract kobs. kobs was plotted as a function of total RNA (50 nM RNA) and fluorophore concentration. kon and koff were extracted as the slope and intercept, respectively. Squash koff (0.014±0.008 s^−1) is very similar to that of Corn (0.018±0.002 s^−1). kon for Squash-DFHO (162300±8100 M^−1 s^−1) is seven-times higher than Corn-DFHO (23000±3000 M^−1 s^−1) which could be due to the high folding of Squash. […]
Dissociation constants (Kd) for the RNA-fluorophore complexes were determined as described previously (Paige et al., “RNA Mimics of Green Fluorescent Protein,” Science 333:642-646 (2011) and Filonov et al., “Broccoli: Rapid Selection of an RNA Mimic of Green Fluorescent Protein by Fluorescence-Based Selection and Directed Evolution,” J. Am. Chem. Soc. 136: 16299-16308 (2014), which are hereby incorporated by reference in their entirety). In brief, the RNA aptamer at a fixed concentration (50 nM) was titrated with increasing fluorophore concentration and the resulting increase in fluorescence was recorded. […]

B1: Squash: fluorogenic RNA aptamer evolved from the add A-riboswitch aptamer, binds DFHBI-1T and DFHO; SEQ ID NO: 12 (SEQ ID NO: 1) (nucleic acid)
chain: AGGUGAGCCCAAUAAUACGGUUUGGGUUAGGAUAGGAAGUAGAGCCGUAAACUCUCUAAGCG
modifications: RNA, backbone not given here
For B1, the “Fold activation of DFHBI-1T fluorescence” value [1] was 1064 fold and the “Affinity for BI” value [2] was “much weaker affinity than Broccoli”.
